Measurements: paper PMC314469, “Protein Interaction Networks by Proteome Peptide Scanning” (PLoS Biology, 2004)

T1: Boi1 SH3 (BOI1_YEAST), P38041
T1 chain: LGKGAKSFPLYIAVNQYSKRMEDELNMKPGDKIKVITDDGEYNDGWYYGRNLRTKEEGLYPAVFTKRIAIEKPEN

T2: Boi2 SH3 (BOI2_YEAST), P39969
T2 chain: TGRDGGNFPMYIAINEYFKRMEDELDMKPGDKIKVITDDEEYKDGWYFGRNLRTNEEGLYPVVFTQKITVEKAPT

T3: Myo5 SH3 (MYO5_YEAST), Q04439
T3 chain: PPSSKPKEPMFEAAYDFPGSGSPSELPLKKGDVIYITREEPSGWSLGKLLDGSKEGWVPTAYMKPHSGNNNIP

T4: Rvs167 SH3 (RV167_YEAST), P39743
T4 chain: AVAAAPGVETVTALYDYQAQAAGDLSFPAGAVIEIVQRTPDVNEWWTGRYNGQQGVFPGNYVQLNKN

T5: Yfr024 SH3 (LSB3_YEAST), P43603
T5 chain: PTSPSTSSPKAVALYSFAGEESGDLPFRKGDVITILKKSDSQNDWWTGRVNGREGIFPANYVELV

T6: Yhr016c SH3 (YSC84_YEAST), P32793
T6 chain: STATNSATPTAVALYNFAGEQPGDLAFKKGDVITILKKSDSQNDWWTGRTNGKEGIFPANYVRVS


Target: T1, Boi1 SH3 (BOI1_YEAST), P38041
Assay: SPOT array

Binder	normalised SPOT signal, Boehringer light units (BLU); mean over the file's lines of this peptide
TTNSRLSPSSPSSS [YJR038C 2-15]	63
TTRRKKDPNAPKRR [YBR089C-A 17-30]	424
TVRTRRRPPPPPIP [YNL094W 462-475]	3490
TYIWRYLPAPPVSI [YOR116C 255-268]	64.5
TTKHKAPPPPPPTA [YOR181W 179-192]	-0
TYGFRVRPDFPVFG [YMR295C 130-143]	12200
VAPNRIPPKVPVIN [YDR466W 429-442]	103
TSWARDNPSKPDIA [YHR209W 243-256]	82.3

Now from value to binder:

normalised SPOT signal, Boehringer light units (BLU); mean over the file's lines of this peptide	Binder
607	TTTYKSRPDRPKPV [YBR289W 757-770]
86.4	TTTIKNRPVPPPLP [YPL140C 79-92]
50	TVSDRLIPTSPQKT [YGR146C 10-23]
193	TYLTRPLPSTPNED [YOL070C 348-361]
416	TTRKKKDPNAPKRA [YPR052C 11-24]

Target: T2, Boi2 SH3 (BOI2_YEAST), P39969
Assay: SPOT array

Binder	normalised SPOT signal, Boehringer light units (BLU); mean over the file's lines of this peptide
TTNSRLSPSSPSSS [YJR038C 2-15]	27.3
TTRRKKDPNAPKRR [YBR089C-A 17-30]	13
TVRTRRRPPPPPIP [YNL094W 462-475]	12.6
TYIWRYLPAPPVSI [YOR116C 255-268]	23.6
TTKHKAPPPPPPTA [YOR181W 179-192]	20.8
TYGFRVRPDFPVFG [YMR295C 130-143]	69.1
VAPNRIPPKVPVIN [YDR466W 429-442]	25
TSWARDNPSKPDIA [YHR209W 243-256]	20.3

Other lines, results leading:

normalised SPOT signal, Boehringer light units (BLU); mean over the file's lines of this peptide	Binder
23.7	TTTYKSRPDRPKPV [YBR289W 757-770]
0	TTTIKNRPVPPPLP [YPL140C 79-92]
31.8	TVSDRLIPTSPQKT [YGR146C 10-23]
-0	TYLTRPLPSTPNED [YOL070C 348-361]
40.3	TTRKKKDPNAPKRA [YPR052C 11-24]

Target: T3, Myo5 SH3 (MYO5_YEAST), Q04439
Assay: SPOT array

Binder	normalised SPOT signal, Boehringer light units (BLU); mean over the file's lines of this peptide
TTNSRLSPSSPSSS [YJR038C 2-15]	161
TTRRKKDPNAPKRR [YBR089C-A 17-30]	999
TVRTRRRPPPPPIP [YNL094W 462-475]	46200
TYIWRYLPAPPVSI [YOR116C 255-268]	444
TTKHKAPPPPPPTA [YOR181W 179-192]	1680
TYGFRVRPDFPVFG [YMR295C 130-143]	357
VAPNRIPPKVPVIN [YDR466W 429-442]	61100
TSWARDNPSKPDIA [YHR209W 243-256]	81.6

The remaining lines, values ahead:

normalised SPOT signal, Boehringer light units (BLU); mean over the file's lines of this peptide	Binder
309	TTTYKSRPDRPKPV [YBR289W 757-770]
1870	TTTIKNRPVPPPLP [YPL140C 79-92]
128	TVSDRLIPTSPQKT [YGR146C 10-23]
101	TYLTRPLPSTPNED [YOL070C 348-361]
275	TTRKKKDPNAPKRA [YPR052C 11-24]

Target: T4, Rvs167 SH3 (RV167_YEAST), P39743
Assay: SPOT array

Binder	normalised SPOT signal, Boehringer light units (BLU); mean over the file's lines of this peptide
TTNSRLSPSSPSSS [YJR038C 2-15]	203
TTRRKKDPNAPKRR [YBR089C-A 17-30]	141
TVRTRRRPPPPPIP [YNL094W 462-475]	663
TYIWRYLPAPPVSI [YOR116C 255-268]	356
TTKHKAPPPPPPTA [YOR181W 179-192]	80
TYGFRVRPDFPVFG [YMR295C 130-143]	361
VAPNRIPPKVPVIN [YDR466W 429-442]	55.9
TSWARDNPSKPDIA [YHR209W 243-256]	34.6

Now from value to binder:

normalised SPOT signal, Boehringer light units (BLU); mean over the file's lines of this peptide	Binder
97.7	TTTYKSRPDRPKPV [YBR289W 757-770]
598	TTTIKNRPVPPPLP [YPL140C 79-92]
143	TVSDRLIPTSPQKT [YGR146C 10-23]
11900	TYLTRPLPSTPNED [YOL070C 348-361]
78.7	TTRKKKDPNAPKRA [YPR052C 11-24]

Each binder was assayed against Sho1 SH3 (SHO1_YEAST), P40073 (assay: SPOT array).
Chain of Sho1 SH3 (SHO1_YEAST), P40073 (P40073 295-366): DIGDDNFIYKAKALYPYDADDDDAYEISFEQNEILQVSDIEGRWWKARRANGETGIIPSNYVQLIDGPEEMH

Binder	normalised SPOT signal, Boehringer light units (BLU); mean over the file's lines of this peptide
TTNSRLSPSSPSSS [YJR038C 2-15]	57.7
TTRRKKDPNAPKRR [YBR089C-A 17-30]	106
TVRTRRRPPPPPIP [YNL094W 462-475]	95.5
TYIWRYLPAPPVSI [YOR116C 255-268]	657
TTKHKAPPPPPPTA [YOR181W 179-192]	6.1
TYGFRVRPDFPVFG [YMR295C 130-143]	71.3
VAPNRIPPKVPVIN [YDR466W 429-442]	19.2
TSWARDNPSKPDIA [YHR209W 243-256]	40.9

More lines, now with the values ahead:

normalised SPOT signal, Boehringer light units (BLU); mean over the file's lines of this peptide	Binder
44.7	TTTYKSRPDRPKPV [YBR289W 757-770]
50.1	TTTIKNRPVPPPLP [YPL140C 79-92]
60.1	TVSDRLIPTSPQKT [YGR146C 10-23]
14200	TYLTRPLPSTPNED [YOL070C 348-361]
108	TTRKKKDPNAPKRA [YPR052C 11-24]

Target: T5, Yfr024 SH3 (LSB3_YEAST), P43603
Assay: SPOT array

Binder	normalised SPOT signal, Boehringer light units (BLU); mean over the file's lines of this peptide
TTNSRLSPSSPSSS [YJR038C 2-15]	91.6
TTRRKKDPNAPKRR [YBR089C-A 17-30]	341
TVRTRRRPPPPPIP [YNL094W 462-475]	891
TYIWRYLPAPPVSI [YOR116C 255-268]	522
TTKHKAPPPPPPTA [YOR181W 179-192]	141
TYGFRVRPDFPVFG [YMR295C 130-143]	892
VAPNRIPPKVPVIN [YDR466W 429-442]	213
TSWARDNPSKPDIA [YHR209W 243-256]	260

More lines, now with the values ahead:

normalised SPOT signal, Boehringer light units (BLU); mean over the file's lines of this peptide	Binder
266	TTTYKSRPDRPKPV [YBR289W 757-770]
290	TTTIKNRPVPPPLP [YPL140C 79-92]
76.1	TVSDRLIPTSPQKT [YGR146C 10-23]
20100	TYLTRPLPSTPNED [YOL070C 348-361]
388	TTRKKKDPNAPKRA [YPR052C 11-24]

Target: T6, Yhr016c SH3 (YSC84_YEAST), P32793
Assay: SPOT array

Binder	normalised SPOT signal, Boehringer light units (BLU); mean over the file's lines of this peptide
TTNSRLSPSSPSSS [YJR038C 2-15]	27.4
TTRRKKDPNAPKRR [YBR089C-A 17-30]	19.6
TVRTRRRPPPPPIP [YNL094W 462-475]	91.7
TYIWRYLPAPPVSI [YOR116C 255-268]	173
TTKHKAPPPPPPTA [YOR181W 179-192]	185
TYGFRVRPDFPVFG [YMR295C 130-143]	134
VAPNRIPPKVPVIN [YDR466W 429-442]	17.7
TSWARDNPSKPDIA [YHR209W 243-256]	49.1

Results, then the binder that gave them:

normalised SPOT signal, Boehringer light units (BLU); mean over the file's lines of this peptide	Binder
68.7	TTTYKSRPDRPKPV [YBR289W 757-770]
32.8	TTTIKNRPVPPPLP [YPL140C 79-92]
13	TVSDRLIPTSPQKT [YGR146C 10-23]
47100	TYLTRPLPSTPNED [YOL070C 348-361]
54	TTRKKKDPNAPKRA [YPR052C 11-24]
